Laboratory results reported in patent US20060241020.

Tests used:
[1] = molecular target: the GST-peptide (PTP-β clone as GST fusion in the dephosphorylation assay)
[2] = molecular target: T1, AEGELpYGSLYA (Sap1 example phosphopeptide)
T1 chain: AEGELYGSLYA

[3] = molecular target: T2, EFpYGAFA (Sap1 example phosphopeptide, A form of EFpYGAFA/G)
T2 chain: EFYGAFA

[4] = molecular target: T3, EFpYGAFG (Sap1 example phosphopeptide, G form of EFpYGAFA/G)
T3 chain: EFYGAFG

[5] = molecular target: all the clones tested (PTP-Sap1 clones as GST-peptides in the dephosphorylation assay)

B1: PTP-β wild type (GST fusion of the catalytic domain) (protein)
chain: RQKVSHGRERPSARLSIRRDRPLSVHLNLGQKGNRKTSCPIKINQFEGHFMKLQADSNYLLSKEYEELKDVGRNQSCDIALLPENRGKNRYNNILPYDATRVKLSNVDDDPCSDYINASYIPGNNFRREYIVTQGPLPGTKDDFWKMVWEQNVHNIVMVTQCVEKGRVKCDHYWPADQDSLYYGDLILQMLSESVLPEWTIREFKICGEEQLDAHRLIRHFHYTVWPDHGVPETTQSLIQFVRTVRDYINRSPGAGPTVVHCSAGVGRTGTFIALDRILQQLDSKDSVDIYGAVHDLRLHRVHMVQTECQYVYLHQCVRDVLRARKLRSEQENPLFPIYENVNPEYHRDPVYSRH
B1 was tested, and the “dephosphorylation assay on GST-PEP constructs” value [1] was “the dephosphorylation of the GST-peptide was weak (not shown) as compared to the same experiment on PTP-Sap1”.

B2: PTP-Sap1 wild type (GST fusion of the catalytic domain) (protein)
chain: LKRRNKKKQQKPELRDLVFSSPGDIPAEDFADHVRKNERDSNCGFADEYQQLSLVGHSQSQMVASASENNAKNRYRNVLPYDWSRVPLKPIHEEPGSDYINASFMPGLWSPQEFIATQGPLPQTVGDFWRLVWEQQSHTLVMLTNCMEAGRVKCEHYWPLDSQPCTHGHLRVTLVGEEVMENWTVRELLLLQVEEQKTLSVRQFHYQAWPDHGVPSSPDTLLAFWRMLRQWLDQTMEGGPPIVHCSAGVGRTGTLIALDVLLRQLQSEGLLGPFSFVRKMRESRPLMVQTEAQYVFLHQCILRFLQQSAQAPAEKEVPYEDVENLIYENVAAIQAHKLEV
With B2 the Km [2] was “Km=7.6 uM”, the Km [3] was “Km=7.0 uM” and the Km [4] was “Km=7.0 uM”. The “dephosphorylation assay on GST-PEP constructs” value [5] was “Dephosphorylation assays showed a conserved enzymatic activity for all the clones tested (not shown)”.
